In US20250034594A1, “RNA-GUIDED GENOME RECOMBINEERING AT KILOBASE SCALE” (THE BOARD OF TRUSTEES OF THE LELAND STANFORD JUNIOR …, priority 2021, published 2025):

B1: SSAP_257: SEQ ID NO: 426; Listeria (multispecies) (protein, listed as Listeria sp.)
chain: ATNDELKNQLANKQNGGQVASAQSLDLKGLLEAPTMRKKFEKVLDKKAPQFLTSLLNLYNGDDYLQKTDPMTVVTSAMVAATLDLPIDKNLGYAWIVPYKGRAQFQLGYKGYIQLALRSGQYKSINVIEVREGELLKWNRLTEEIELDLDNNTSEKVVGYCGYFQLINGFEKTVYWTRKEIEAHKQKFSKSDFGWKKDYDAMAKKTVLRNMLSKWGILSIDMQTAVTEDEAEPRERKDVTEDESIPDIIDAPITPSDTLEAGSEVQGSMI
B2: SSAP_274: SEQ ID NO: 443; Clostridium liquoris (protein, listed as Clostridium liquoris)
chain: TTASELKNQLATRKETGVGSAGNTVKGLLESPAIKKRFEEVLKQRAPQYMSSIVNLVNGDANLKKCDQMSVIASCMVAATLDLPVDKNLGYAWVVPYGNKAQFQLGYKGYVQLALRTGQYKSINVIEIHEGELIEWNPLTEELRIDFEKKKSDAIIGYAGYFELINGFRKSTYWTKEQITKHKNKFSKSDFGWKKDFDAMAKKTVLRNMLSKWGILSIEMQNAYTADQETIKSEVLETGNIKENVEYVEADFDVDFEGTPFEEGVTNE
B3: SSAP_30: SEQ ID NO: 199 (protein)
chain: EKPKLIQRFAERFSVDPNKLFDTLKATAFKQRDGSAPTNEQMMALLVVADQYGLNPFTKEIFAFPDKQAGIIPVVGVDGWSRIINQHDQFDGMEFKTSETKVSLDGAKECPEWMECIIYRRDRSHPVKITEYLDEVYRPPFEGNGKNGPYRVDGPWQTHTKRMLRHKSMIQCSRIAFGFVGIFDQDEAERIIEGQATHVVEPSVIPPEQVDDRTRGLVYKLIERAEASNAWNSALEYANEHFQGVELTFAKQEIFNAQQQAAKALTQPLAS
B4: SSAP_145: SEQ ID NO: 314; Roseburia sp. CAG: 182 (protein, listed as Roseburia sp.)
chain: DVKEELAKMAEEKPTKKLTKSMSIQDMIKVIEPEIKKALPSVLTPERFTRMALSAINNTPKLAECSQISFLAALMNAAQLGLEPNTPLGQAYLIPFQNKGKLECQFQIGYKGIIELVYRNPLIQTIQAQVVYENDEFEYELGLNSRLFHRPALYDRGETVLFYALFKMSNGGYGFEVLSKQDMDAYAKRYSKGISSEYSPWKSNYEEMAKKTMIKKVLKYAPIRTDFQKAVSMDESIKKELSVDMSEVSNENIIDMEEITQEEE
B5: SSAP_129: SEQ ID NO: 298; Lacrimispora indolis (protein, listed as Lacrimispora indolis)
chain: SDVKQELEKRAAGGGGQSQSVRLTKNMTIVDMVKALEPEIKRALPSILTPERFTRMALSAINNTPKLGECTPMSFIAALMNAAQLGLEPNTPLGQAYLIPYKNKGVLECQFQLGYRGLIDLAYRNERMQSVEAQVVYENDEFSYELGLHPSLIHRPSFDEPGEIRAFYAIFRLDNGGFRFEVMSKSYVDAYAARYSKAFTSDFSPWKSNYEGMAKKTVIKQLLKYAPMKSEFQKAVTMDETIKTELSVDMSEVSNQEVIDRELTEQVA
B6: SSAP_54: SEQ ID NO: 223; Bet Pseudomonas phage PS-1 (protein, listed as Pseudomonas sp.)
chain: SNVATIKPSSLSARMAERFGVDPNEMMATLKATAFKGQVSDAQMQALLIVADQYGLNPWTKEIYAFPDKGGIVPVVGVDGWSRIINENGAFDGMDFQQDDESCTCIIYRKDRNHPIKVTEWMAECKRNTQPWQSHPKRMLRHKAMIQCARLAFGYTGIFDEDEAQRIVEKDVTPAVNEPDITPALEAIKNASSMEELHAAFKAAWNQHPSARARLTAVKDERKKALSEPIEGELVENEDGPAQQ
B7: SSAP_314: SEQ ID NO: 483; Ferrimonas kyonanensis (protein, listed as Ferrimonas kyonanensis)
chain: NQMINEPDFVTALKDSRETYIDLTQNGGFNLNYGLEAGWAHQQIEASRYQNLDLTCSEPGSIMQAFCEAARLGLSFDPRKKHIYLMGQKDVQSGRTITILYVGYKGMIALACRTGFMIGGHADLVFEEDTFTYRSGTQLPVHEHDGRPNHERGRLKCGYVVAHQPGGMVKTLLVPKEVLLEAASNGLNAGGSNNTWCGPYMEMMYQKTCWRYAFNAWYSELEAVGMTQAQLESATTAVSYQ
B8: SSAP_319: SEQ ID NO: 488; Helicobacter trogontum (protein, listed as Helicobacter trogontum)
chain: SNITTIQRKNEALALLENKEIQERLCALCGNEASKDKFKASLLNIALDSNLSACSMQSIVKASLDIAGLKLSLNKNLGKAYIVPRKVKIGNDYITEARIDIGYKGWLELAKRSKLSVKAHSVFDCDDFVYSVDGVDEYMKLTPNFELRQEHDSAWVKEHLKGIVVGIKDLKSGDSEVKFVSKGTLLKIMQKNDSVKNGKYSAYTDWLHEMLLAKAIKSCLSKTAMSEDTFYLIISNNKLFI
B9: SSAP_242: SEQ ID NO: 411; Lactococcus sp. S-13 (protein, listed as Lactococcus sp.)
chain: SNQITKTQQTLKSPEVKAKFEEVLGKKADGFVASLLSVVGNSNLKTVEANSVMTAAMKAATLDLPIEPSLGFAYVIPYGREAQFQIGYKGFIQLALRSGQLTGLNCGIVYESQFVSYDPLFEELELDFTQQASGDAVGYFASMKLANGFKKVTYWSKEQVLAHKKKFVKSANGPWRDHFDAMAQKTVLKAMLTKYAPASIESKMIQTAITEDDSERFENAKDVTPDEPVISIDEPVTSEVSQNESSAESQEQFPEDEVEELFPIGKS

system: gene editing with Cas9 and dCas9; experiment: Screen of 322 new SSAP proteins, activity across all experiments (Cas9 and dCas9, Table 5); assay type: cell-based; parameters: scale not given here; conditions: not given
How it was run: (§1)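 Synthetic SSAP candidates, identified computationally, were tested in editing screens using both Cas9 and dCas9.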

Point of comparison: B9, “Activity across all experiments” value 2.999. Against it:
- B1 — lower, −1.217
- B2 — lower, −1.072
- B3 — lower, −0.927
- B4 — lower, −1.325
- B5 — lower, −1.200
- B6 — lower, −1.264
- B7 — lower, −1.240
- B8 — lower, −0.883

system: gene editing with Cas9; experiment: Screen of 322 new SSAP proteins, gene editing activity with Cas9 (Table 5); assay type: cell-based; parameters: Cas9 with SSAP activity: scale not given here; conditions: not given
How it was run: as §1

Point of comparison: B9, “Cas9 with SSAP activity” value 2.358. Against it:
- B1 — lower, 0.216
- B2 — lower, 0.280
- B3 — lower, 0.813
- B4 — lower, −0.211
- B5 — lower, 0.031
- B6 — lower, −0.011
- B7 — lower, 0.114
- B8 — lower, 0.742

same assay, conditions: normalized

Point of comparison: B1, “Cas9 with SSAP activity (normalized)” value 0.821. Against it:
- B2 — lower, 0.259
- B3 — lower, 0.564
- B4 — lower, −0.214
- B5 — lower, 0.019
- B6 — lower, −0.061
- B7 — lower, 0.106
- B8 — higher, 1.773
- B9 — higher, 1.579

system: gene editing with dCas9; experiment: Screen of 322 new SSAP proteins, gene editing activity with dCas9 (Table 5); assay type: cell-based; parameters: dCas9 with SSAP activity: scale not given here; conditions: not given
How it was run: as §1

Point of comparison: B5, “dCas9 with SSAP activity” value −2.431. Against it:
- B1 — lower, −2.649
- B2 — higher, −2.423
- B3 — lower, −2.667
- B4 — lower, −2.440
- B6 — lower, −2.517
- B7 — lower, −2.593
- B8 — lower, −2.508
- B9 — higher, 3.640

same assay, conditions: normalized

Point of comparison: B1, “dCas9 with SSAP activity (normalized)” value −1.189. Against it:
- B2 — higher, −0.328
- B3 — higher, −0.795
- B4 — higher, −0.309
- B5 — higher, −0.313
- B6 — higher, −0.565
- B7 — higher, −0.657
- B8 — higher, −0.276
- B9 — higher, 2.062
